Measurements taken from patent US10525246B2, “Microdevice and method for transdermal delivery and sampling of active substances” (NANOMED SKINCARE, INC., priority 2006, dated 2020).

Test: Serum insulin concentration vs. time in diabetic rat after administration of insulin by the microdevice with occlusive layer
Type: in vivo
Text: The serum concentration reached 110±5.37 μIU/ml and stayed relatively constant at this level when the occlusive layer was applied.

Novolin R®: Novolin R insulin administered to a diabetic rat by the present microdevice
Serum insulin concentration after removal of the occlusive layer (after removal of the occlusive layer): rapidly dropped | Serum insulin concentration (microdevice administration, occlusive layer applied, level reached and stayed relatively constant): 110±5.37 μIU/ml
